What was measured:
[1] = biological target: T1, MutS (Cy5-labeled) (Escherichia coli, UniProt P23909 P23909:1-853); test: EMSA; 150 mM KCl, 10 mM MgCl2; labeled and unlabeled; details: tags: Cy5 nonspecific amine label; also Gene Check unlabeled in EMSA; label: 5'-biotin (SPR); 5'-32P (EMSA); G/T mismatch
T1 sequence: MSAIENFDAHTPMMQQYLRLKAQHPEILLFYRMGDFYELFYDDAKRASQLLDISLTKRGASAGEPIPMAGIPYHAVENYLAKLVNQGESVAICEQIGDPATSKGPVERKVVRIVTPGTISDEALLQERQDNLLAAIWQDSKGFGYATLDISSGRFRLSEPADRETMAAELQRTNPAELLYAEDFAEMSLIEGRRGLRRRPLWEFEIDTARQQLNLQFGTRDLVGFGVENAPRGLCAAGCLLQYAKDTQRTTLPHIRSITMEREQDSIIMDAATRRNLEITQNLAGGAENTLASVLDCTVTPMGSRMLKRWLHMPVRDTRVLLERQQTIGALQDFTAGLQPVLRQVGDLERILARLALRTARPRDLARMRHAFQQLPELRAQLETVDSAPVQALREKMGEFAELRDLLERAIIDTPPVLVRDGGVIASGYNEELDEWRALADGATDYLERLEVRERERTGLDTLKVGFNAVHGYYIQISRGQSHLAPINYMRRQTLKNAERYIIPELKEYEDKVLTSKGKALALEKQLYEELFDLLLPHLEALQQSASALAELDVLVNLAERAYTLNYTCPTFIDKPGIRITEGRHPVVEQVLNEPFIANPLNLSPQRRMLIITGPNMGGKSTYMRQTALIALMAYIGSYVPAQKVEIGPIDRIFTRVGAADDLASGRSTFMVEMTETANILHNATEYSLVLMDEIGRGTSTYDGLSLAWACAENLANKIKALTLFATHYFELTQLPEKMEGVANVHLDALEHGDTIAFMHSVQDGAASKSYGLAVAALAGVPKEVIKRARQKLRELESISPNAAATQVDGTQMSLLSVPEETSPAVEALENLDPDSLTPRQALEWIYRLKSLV
Protocol: Subsequently, the band shift method was used to check whether the Cy™5-conjugated mutS proteins were functionally active, i.e. whether they were still able to bind specifically to base mispairings. For this, heteroduplexes were generated by hybridizing the oligonucleotides […] (Seq. ID No. 6) and “GT” (Seq. ID No. 7), respectively, with the “sense” oligonucleotide (Seq. ID No. 11) by heating for 5 minutes at 95° C. in […] tris-HCl, 100 mM KCl, 5 mM MgCl₂, followed by cooling slowly down to room temperature. […] Using T₄ polynucleotide kinase (New England Biolabs, Frankfurt), 10 pmol each of the two heteroduplexes which wer produced using the “AT” and “GT” oligonucleotides were radioactively labeled, in accordance with the manufacturer's instructions, with 150 μCi of ³²P-ATP at their 5′ ends and purified through Sephadex G50 gel filtration columns (Pharmacia, Uppsala, Sweden) in accordance with the manufacturer's instructions. […] After the run, the gels were dried and analyzed by autoradiography (FIG. 6).

[2] = biological target: T1, MutS (Cy5-labeled); test: hydrogel chip fluorescence; details: tags: Cy5 nonspecific amine label, also Gene Check unlabeled in EMSA
Excerpt: (§1) The biotinylated “sense” oligonucleotide (Seq. ID No. 10) was electronically addressed to the individual positions on the hydrogel chip, for 60 sec. and at a voltage of 2.1 V, in the Nanogen workstation loading appliance. The hybridization with the second-strand AT (Seq. ID No. 12), GT (Seq. ID No. 13), AA (Seq. ID No. 14), AG (Seq. ID No. 15), CA (Seq. ID No. 16), CC (Seq. ID No. 17), CT (Seq. ID No. 18), GG (Seq. ID No. 19), TT (Seq. ID No. 20), ins+1T (Seq. ID No. 21), ins+2T (Seq. ID No. 22) and ins+3T (Seq. ID No. 23) oligonucleotides was carried out for 120 sec. at 2.1 V. The loading scheme is shown in Table 45; the name of each second-strand oligonucleotide indicates the mispairing or insertion (“ins”) which is formed on hybridization.
(§2) After the loading, the chips were taken out of the loading appliance, filled with 1 ml of blocking buffer and incubated at room temperature for 60 min in order to saturate nonspecific protein-binding sites. The binding of E.coli mutS (ChipA), MBP-MutS (ChipB), Thermus aquaticus mutS (ChipC) and Thermus thermophilus mutS (Chip D) to the resulting DNA double strands was then tested. For this, the chips were incubated for 60 min with in each case 2-3 μg of the Cy™5-labeled mutS proteins in 100 μl of incubation buffer. The chips which were incubated with E.coli mutS and MBP mutS were incubated at room temperature while the chips which were incubated with Thermus aquaticus mutS and Thermus thermophilus mutS were incubated at 37° C. After this incubation, the chips were washed by hand with 10 ml of incubation buffer and inserted into the Nanogen reader. In the reader, the chips were washed, at a temperature of 37° C. (E.coli mutS and MBP-mutS) or 50° C. (Thermus aquaticus mutS and Thermus thermophilus mutS), 70-80× with in each case 0.25 ml of washing buffer.
(§3) Finally, the Cy™3 and Cy™5 fluorescence intensities at the individual positions on the chips were measured in the Nanogen reader using the following instrument settings: high sensitivity (“high gain”) in the case of Cy™5, low sensitivity (“low gain”) in the case of CY™3; 256 μs integration time. Care was taken to ensure that the Cy™3 fluorescence intensity was distributed homogeneously over the chip surface.

[3] = biological target: T2, MBP-MutS fusion (Cy5-labeled) (Escherichia coli, UniProt P23909 P23909:1-853); test: hydrogel chip fluorescence; details: label: 5'-biotin, 5'-Cy3
T2 chain: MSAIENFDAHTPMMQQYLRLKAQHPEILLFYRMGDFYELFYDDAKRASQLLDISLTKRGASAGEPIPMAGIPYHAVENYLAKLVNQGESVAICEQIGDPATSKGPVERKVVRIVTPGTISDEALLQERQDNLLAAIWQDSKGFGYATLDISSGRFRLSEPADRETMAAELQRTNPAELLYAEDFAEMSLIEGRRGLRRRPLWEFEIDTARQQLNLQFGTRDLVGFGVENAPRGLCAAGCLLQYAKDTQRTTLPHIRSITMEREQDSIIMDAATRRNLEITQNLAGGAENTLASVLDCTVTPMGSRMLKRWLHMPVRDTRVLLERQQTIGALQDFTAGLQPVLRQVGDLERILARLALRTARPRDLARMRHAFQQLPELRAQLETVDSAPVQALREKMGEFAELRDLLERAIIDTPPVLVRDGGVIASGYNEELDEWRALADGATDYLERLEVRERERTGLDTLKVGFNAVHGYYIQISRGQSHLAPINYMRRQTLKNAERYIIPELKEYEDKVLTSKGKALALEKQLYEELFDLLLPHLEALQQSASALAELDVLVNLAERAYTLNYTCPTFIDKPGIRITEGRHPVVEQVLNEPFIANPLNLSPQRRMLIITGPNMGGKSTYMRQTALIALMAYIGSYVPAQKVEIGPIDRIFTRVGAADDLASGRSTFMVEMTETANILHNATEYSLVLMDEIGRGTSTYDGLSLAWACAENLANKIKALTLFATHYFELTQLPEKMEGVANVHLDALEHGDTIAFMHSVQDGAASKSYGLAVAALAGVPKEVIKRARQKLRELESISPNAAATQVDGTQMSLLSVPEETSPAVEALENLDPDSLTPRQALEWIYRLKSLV
Excerpt: as §1, §2, §3

[4] = biological target: T1, MutS (Cy5-labeled); test: impedance spectroscopy; 100 mM KCl, 5 mM MgCl2; details: tags: Cy5 nonspecific amine label; also Gene Check unlabeled in EMSA; hairpin, two G/T mismatches
Protocol: (§4) The individual electrodes were measured in aqueous K₃/K₄Fe(CN)₆ solution (Darmstadt, Germany) (20 mM in 20 mM tris buffer, 100 mM KCl, 5 mM MgCl), in the frequency range from 100 mHz to 1 MHz […], before and after incubating with mutS. The measured values are shown in the Bode diagram. The measurements were carried out, at room temperature, on an IM 6e impedance measuring desk supplied by Zahner Messtechnik.
(§5) The advantage of this method is that it is possible to carry out measurements on the samples without destroying them and without using labels. The mutation-recognizing E. coli mutS protein was used as a model system for the binding of mispairing-recognizing substrates, while Seq. ID Nos. 50 and 51 were used as duplex-forming oligonucleotides. […] The results of the measurement are depicted in FIGS. 29A and 29B.

[5] = biological target: T1, MutS (Cy5-labeled); test: impedance spectroscopy; no or only very slight binding; details: tags: Cy5 nonspecific amine label; also Gene Check unlabeled in EMSA; hairpin
Protocol: as §4, §5

B1: sense(36)/GT (dsDNA)
DNA 1: AAGCATACGGAAGTTAAAGTGCGGATCATCTCTAGC
DNA 2: TGGCTAGAGATGATCCGCGCTTTAACTTCCGTATGC
[1]
  binding result: binds

B2: sense/AA mismatch (dsDNA)
DNA 1: AAGCATACGGAAGTTAAAGTGCGGATCATCTCTAGCCA
DNA 2: TGGCTAGAGATGATCCGCACATTAACTTCCGTATGC
[2]; label: 5'-biotin, 5'-Cy3, A/A mismatch
  binding signal: 13 fold vs AT
[3]; A/A mismatch
  binding signal: 4.03 fold vs AT

B3: sense/AC mismatch (dsDNA)
DNA 1: AAGCATACGGAAGTTAAAGTGCGGATCATCTCTAGCCA
DNA 2: TGGCTAGAGATGATCCGCACCTTAACTTCCGTATGC
[2]; label: 5'-biotin, 5'-Cy3, A/C mismatch
  binding signal: 5.73 fold vs AT
[3]; A/C mismatch
  binding signal: 2.53 fold vs AT

B4: sense/AG mismatch (dsDNA)
DNA 1: AAGCATACGGAAGTTAAAGTGCGGATCATCTCTAGCCA
DNA 2: TGGCTAGAGATGATCCGCAATTTAACTTCCGTATGC
[2]; label: 5'-biotin, 5'-Cy3, A/G mismatch
  binding signal: 3.34 fold vs AT
[3]; A/G mismatch
  binding signal: 2.72 fold vs AT

B5: sense/CT mismatch (dsDNA)
DNA 1: AAGCATACGGAAGTTAAAGTGCGGATCATCTCTAGCCA
DNA 2: TGGCTAGAGATGATCCGCCCTTTAACTTCCGTATGC
[2]; label: 5'-biotin, 5'-Cy3, C/T mismatch
  binding signal: 6.24 fold vs AT
[3]; C/T mismatch
  binding signal: 3.56 fold vs AT

B6: sense/GG mismatch (dsDNA)
DNA 1: AAGCATACGGAAGTTAAAGTGCGGATCATCTCTAGCCA
DNA 2: TGGCTAGAGATGATCCGCAGTTTAACTTCCGTATGC
[2]; label: 5'-biotin, 5'-Cy3, G/G mismatch
  binding signal: 18.4 fold vs AT
[3]; G/G mismatch
  binding signal: 6.5 fold vs AT

B7: sense/GT mismatch (dsDNA)
DNA 1: AAGCATACGGAAGTTAAAGTGCGGATCATCTCTAGCCA
DNA 2: TGGCTAGAGATGATCCGCGCTTTAACTTCCGTATGC
[2]; label: 5'-biotin, 5'-Cy3, G/T mismatch
  binding signal: 29 fold vs AT
[3]; G/T mismatch
  binding signal: 22.3 fold vs AT

B8: sense/TT mismatch (dsDNA)
DNA 1: AAGCATACGGAAGTTAAAGTGCGGATCATCTCTAGCCA
DNA 2: TGGCTAGAGATGATCCGCTCTTTAACTTCCGTATGC
[2]; label: 5'-biotin, 5'-Cy3, T/T mismatch
  binding signal: 1.82 fold vs AT
[3]; T/T mismatch
  binding signal: 1.94 fold vs AT

B9: sense/AT perfect duplex (dsDNA)
DNA 1: AAGCATACGGAAGTTAAAGTGCGGATCATCTCTAGCCA
DNA 2: TGGCTAGAGATGATCCGCACTTTAACTTCCGTATGC
[2]; label: 5'-biotin sense, 5'-Cy3 AT
  binding signal: 1 fold vs AT

B10: sense/CC mismatch (dsDNA)
DNA 1: AAGCATACGGAAGTTAAAGTGCGGATCATCTCTAGCCA
DNA 2: TGGCTAGAGATGATCCCCACTTTAACTTCCGTATGC
[2]; label: 5'-biotin, 5'-Cy3, C/C mismatch
  binding signal: 1.37 fold vs AT

B11: hairpin with two GT mispairings (structured_DNA)
DNA: ATTCGATCGGGGCGGGGCGAGCTTTTTGCTCGCCTTGCCCCGATCGAAT
modifications: 5'-SH, amino modifier X in loop
[4]
  binding result: binds

B12: hairpin perfectly paired (structured_DNA)
DNA: ATTCGATCGGGGCGGGGCGAGCTTTTGCTCGCCCCGCCCCGATCGAAT
modifications: 5'-SH, amino modifier X in loop
[5]
  binding result: no binding

Source: patent US20040110161, “Method for detecting mutations in nucleotide sequences” (published 2004)
